Laboratory results from US20040136985A1 (published 2004).
Each block holds one binder with its values, some of them ahead of it.

Experiments:
human plasma fibronectin [1] = target: T1, human plasma fibronectin (human, UniProt P02751-8 32-2296, limits assumed); assay: cell-based or functional assay
human plasma fibronectin [2] = target: T1, human plasma fibronectin; assay: competition ELISA, peptide 6 titrated 0-160 µM against FN binding to immobilized CD9
Experimental: FIG. 2C illustrates the effect of titrations of Peptide 6 (0-160 μM) on FN-CD9 binding was evaluated. […] The ability of CD9-CHO-B2 cells to adhere to FN was compared with Mock-CHOB2 cells. CD9-CHO-B2 cells had increased adhesion to FN in the absence of integrin α5β1 expression when compared to Mock-CHO-B2 cells. […] A scrambled control (peptide 6S) had no significant effect on CD9-CHO-B2 cell adhesion (p>0.005).
All incubation periods for the CD9/FN binding ELISA lasted two hours at RT unless otherwise indicated. Immulon I (Dynatech) microtiter plate wells were coated with CD9 (2 μg/ml), His₆-rCD9 (2 μg/ml), BSA (10 μg/ml), or peptide (10 μM) in Buffer A. After one wash with Buffer B, plates were blocked with Blocking Buffer 1.1% BSA was included in steps from ligand overlay to addition of mAb conjugate to minimize non-specific binding. Titrations of human plasma FN in Buffer B were added to plates either alone, or in the case of competition ELISAs, with 0-160 μM synthetic peptide. Plates were washed three times with ELISA Buffer B, followed by incubation with a 1/1000 dilution of rabbit anti-FN antibody. After two washes with Buffer B and one wash with Buffer C, plates were incubated with 1/500 antirabbit IgG alkaline phosphatase in Buffer C for one hour at RT. After four washes with Buffer C, 1 mg/mlp-nitrophenyl phosphate substrate was added and the absorbance at 405 nm was recorded.

T1 sequence (P02751 other isoform, or with tags, fused parts or gaps limits assumed): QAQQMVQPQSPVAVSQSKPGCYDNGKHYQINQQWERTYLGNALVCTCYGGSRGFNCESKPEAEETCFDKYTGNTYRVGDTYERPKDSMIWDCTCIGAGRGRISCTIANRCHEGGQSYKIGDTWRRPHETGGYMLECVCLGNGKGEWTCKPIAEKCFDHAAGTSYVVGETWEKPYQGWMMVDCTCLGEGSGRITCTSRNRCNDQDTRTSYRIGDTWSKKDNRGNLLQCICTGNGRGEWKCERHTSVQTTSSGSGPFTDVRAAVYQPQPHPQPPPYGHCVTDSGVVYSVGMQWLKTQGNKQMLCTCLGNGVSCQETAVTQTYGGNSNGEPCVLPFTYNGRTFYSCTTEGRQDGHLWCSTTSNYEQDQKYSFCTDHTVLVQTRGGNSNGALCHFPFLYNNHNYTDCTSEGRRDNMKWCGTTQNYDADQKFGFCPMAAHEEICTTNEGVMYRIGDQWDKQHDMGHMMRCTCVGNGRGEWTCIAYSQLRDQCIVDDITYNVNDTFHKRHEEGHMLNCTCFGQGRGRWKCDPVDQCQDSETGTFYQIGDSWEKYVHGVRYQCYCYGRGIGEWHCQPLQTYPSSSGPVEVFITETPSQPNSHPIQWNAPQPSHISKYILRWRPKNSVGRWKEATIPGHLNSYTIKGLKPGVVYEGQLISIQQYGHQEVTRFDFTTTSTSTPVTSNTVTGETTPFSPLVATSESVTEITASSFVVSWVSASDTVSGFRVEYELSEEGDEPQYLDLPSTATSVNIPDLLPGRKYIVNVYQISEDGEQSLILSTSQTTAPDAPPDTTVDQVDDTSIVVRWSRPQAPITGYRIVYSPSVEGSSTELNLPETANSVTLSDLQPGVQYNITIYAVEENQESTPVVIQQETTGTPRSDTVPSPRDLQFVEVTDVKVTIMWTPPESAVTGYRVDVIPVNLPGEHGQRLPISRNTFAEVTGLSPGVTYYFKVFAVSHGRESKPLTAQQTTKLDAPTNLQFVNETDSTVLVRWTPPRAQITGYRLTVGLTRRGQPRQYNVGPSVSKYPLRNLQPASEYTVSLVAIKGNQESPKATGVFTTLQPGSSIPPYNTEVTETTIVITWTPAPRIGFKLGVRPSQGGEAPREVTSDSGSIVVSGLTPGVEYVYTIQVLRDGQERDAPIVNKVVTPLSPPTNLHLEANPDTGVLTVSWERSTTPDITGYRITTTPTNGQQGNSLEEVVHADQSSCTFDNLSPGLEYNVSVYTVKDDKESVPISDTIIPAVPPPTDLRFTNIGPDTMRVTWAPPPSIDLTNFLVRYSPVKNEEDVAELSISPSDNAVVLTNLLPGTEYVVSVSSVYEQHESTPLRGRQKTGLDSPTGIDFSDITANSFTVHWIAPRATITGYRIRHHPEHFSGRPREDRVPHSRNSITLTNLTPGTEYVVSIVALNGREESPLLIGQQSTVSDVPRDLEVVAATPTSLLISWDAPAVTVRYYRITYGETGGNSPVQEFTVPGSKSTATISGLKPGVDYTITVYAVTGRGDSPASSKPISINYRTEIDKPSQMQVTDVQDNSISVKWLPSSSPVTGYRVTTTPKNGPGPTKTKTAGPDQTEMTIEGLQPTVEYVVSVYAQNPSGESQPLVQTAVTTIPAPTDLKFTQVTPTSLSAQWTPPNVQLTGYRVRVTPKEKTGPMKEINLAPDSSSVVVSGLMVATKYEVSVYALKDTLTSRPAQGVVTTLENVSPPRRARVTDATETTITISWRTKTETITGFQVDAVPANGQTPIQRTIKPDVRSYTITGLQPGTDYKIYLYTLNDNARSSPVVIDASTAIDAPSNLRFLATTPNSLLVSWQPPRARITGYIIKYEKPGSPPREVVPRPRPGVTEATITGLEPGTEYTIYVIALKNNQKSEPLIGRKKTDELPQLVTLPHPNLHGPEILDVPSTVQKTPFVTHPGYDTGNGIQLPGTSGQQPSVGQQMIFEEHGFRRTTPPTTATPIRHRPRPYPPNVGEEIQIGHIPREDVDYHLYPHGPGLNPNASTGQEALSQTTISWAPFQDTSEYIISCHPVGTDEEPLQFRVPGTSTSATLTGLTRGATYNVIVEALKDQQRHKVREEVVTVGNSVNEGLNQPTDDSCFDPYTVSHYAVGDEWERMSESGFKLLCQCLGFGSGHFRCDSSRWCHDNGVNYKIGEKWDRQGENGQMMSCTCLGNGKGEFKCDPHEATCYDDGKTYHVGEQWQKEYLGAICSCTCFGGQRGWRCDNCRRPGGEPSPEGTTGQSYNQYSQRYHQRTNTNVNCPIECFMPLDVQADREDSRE

reduction in haptotactic motility to FN (human plasma fibronectin [1]): 45%
B1: CD9 Δ173-192 (receptor)
chain: MPVKGGTKCIKYLLFGFNFIFWLAGIAVLAIGLWLRFDSQTKSIFEQETNNNNSSFYTGVYILIGAGALMMLVGFLGCCGAVQESQCMLGLFFGFLLVIFAIEIAAAIWGYSHKDEVIKEVQEFYKDTYNKLKTKDEPQRETLKAIHYALNCCGLAGGVEQFISDICPKKDVFHIIGAVGIGIAVVMIFGMIFSMILCCAIRRNREMV

reduction in haptotactic motility to FN (human plasma fibronectin [1]): 64%
B2: CD9 Δ133-192 (receptor)
chain: MPVKGGTKCIKYLLFGFNFIFWLAGIAVLAIGLWLRFDSQTKSIFEQETNNNNSSFYTGVYILIGAGALMMLVGFLGCCGAVQESQCMLGLFFGFLLVIFAIEIAAAIWGYSHKDEVIKEVQEFYKDTYNKLFHIIGAVGIGIAVVMIFGMIFSMILCCAIRRNREMV

IC50 (read off the curve) (human plasma fibronectin [2]): ~20 µM
Binder: PKKDVLETFTVKSCPDAIKEVFDNK (Synthetic peptide of CD9 EC2) [peptide 6]

reduction in haptotactic motility to FN (human plasma fibronectin [1]): 58%
B3: CD9 Δ113-228 (receptor)
chain: MPVKGGTKCIKYLLFGFNFIFWLAGIAVLAIGLWLRFDSQTKSIFEQETNNNNSSFYTGVYILIGAGALMMLVGFLGCCGAVQESQCMLGLFFGFLLVIFAIEIAAAIWGYS
